Measurements: US11732029B2, “Methods and compositions for the treatment of wounds” (The University of Chicago, priority 2017, dated 2023)
No end group written: not given here.

What was measured:
[1] = system: full-thickness back-skin wounds in db/db diabetic mice; experiment: Retention of VEGF-A165 at the wound site; type: in vivo; settings: db/db mouse; fibrin matrix with 200 ng VEGF-A165/wound; 3 days after treatment; vs without peptide
Description: Retention assays were performed as previously reported^1. Briefly, C57BLKS/J-m/Lepr db (db/db) mice ages 10 to 11 wks were used. Their backs were shaved and four full-thickness punch-biopsy wounds (6 mm in diameter) were created in each mouse. Directly after, fibrin matrices [80 μL total, fibrinogen (10 mg/mL), 2 U/mL human thrombin, 4 U/mL factor XIII, 5 mM calcium chloride, 2 μM α2PI1-8-α33043-3067, 200 ng of recombinant human VEGF-A165] were polymerized on the wounds. To avoid drying of the matrices, the wounds were covered with non-adhering dressing (Adaptic, Johnson & Johnson), and then with adhesive film dressing (Hydrofilm, Hartmann). After 3 or 6 days, mice were sacrificed. The wounds were punched again, in order to recover the fibrinous matrices. Moreover, the tissue surrounding the wounds (2 mm beyond the wound margin) was removed. The tissue was transferred in 0.9 mL of tissue T-PER Tissue Protein Extraction Reagent (Thermo Scientific) containing 1 mg/mL of collagenase IV (Sigma-Aldrich), and homogenized with a tissue homogenizer. […] Recombinant human VEGF-A165 remaining in the fibrinous matrix and in the tissue surrounding the wound were quantified by ELISA (DuoSet, R&D Systems), using 200 ng of recombinant human VEGF-A165 as 100%.

[2] = system: GF binding to laminin; experiment: Inhibition of laminin-GF binding by heparin (ELISA); settings: heparin added in excess (10 μM); VEGF-A165, PlGF-2 or FGF-2
Description: ELISA plates (med-binding) were coated with 10 μg/mL laminin isoforms (−111, −211, −221, −411, −421, −511, and −521) in PBS for 2 hrs at 37° C. Then, wells were blocked with 2% BSA-containing PBS-T and further incubated with 1 μg/mL each of VEGF-A165, PlGF-2, or FGF-2 for 60 min at RT with 10 μM heparin. Next, the wells were incubated with biotinylated anti-VEGF, anti-PlGF, or anti-FGF-2 antibodies (R&D Systems). The antibodies were detected by streptavidin-HRP (R&D Systems).

[3] = biological target: vWF binding to the GFs (Homo sapiens, UniProt P04275); experiment: Inhibition of vWF-GF binding by heparin (ELISA); settings: excess (10 μM) heparin; VEGF-A165, PlGF-2 or FGF-2
Description: ELISA plates (med-binding) were coated with 10 μg/mL vWF. Then, wells were blocked with 2% BSA-containing PBS-T and further incubated with 1 μg/mL each of VEGF-A, PlGF-2, or FGF-2 for 60 min at room temperature (RT) with 10 μM heparin. Next, the wells were incubated with biotinylated anti-VEGF-A, anti-PlGF, or anti-FGF-2 antibodies (R & D Systems). The antibodies were detected by streptavidin-HRP (R & D Systems). Color development and the absorbance measurement were done as described above.

[4] = biological target: T1, CXCL-12α (Homo sapiens, UniProt P48061); experiment: Laminin binding to recombinant GFs (ELISA); settings: ELISA A450 nm; signals greater than 0.1 = binding
T1 construct: All GFs and chemokines were purchased in their mature forms; purchased PeproTech; host or cells: Escherichia coli
Description: (§1) ELISA tests were performed as previously reported. In brief, ELISA plates (med-binding, Greiner Bio-One) were coated with 50 nM GFs at 37° C. for more than 2 hrs. After blocking with 2% BSA solution containing PBS and 0.05% Tween 20 (PBS-T), 10 nM recombinant human laminin isoforms (−111, −211, −332, −411, −421, −511, and −521) (>95% purity tested by SDS-PAGE, BioLamina) were added. Bound laminin was detected with rabbit anti-human laminin γ1 chain antibody (1:1000 dilution, Assay biotech) or rabbit anti-human laminin α3 chain antibody (1:1000 dilution, Assay biotech). After incubation with biotinylated anti-rabbit antibody for 60 min at room temperature (RT), HRP conjugated streptavidin (Jackson ImmunoResearch) was added. After 60 min of incubation at RT, 50 μL TMB substrate (Sigma-Aldrich) was added. The reactions were stopped by adding 25 μL of 2N H2SO4. Subsequently, the absorbance at 450 nm was measured with a reference of 570 nm.

[5] = biological target: T2, CXCL-11 (Homo sapiens, UniProt O14625); experiment: Laminin binding to recombinant GFs (ELISA); settings: ELISA A450 nm; signals greater than 0.1 = binding
T2 construct: All growth factors (GFs) and chemokines were purchased in their mature forms; purchased PeproTech; host or cells: Escherichia coli
T2 sequence (O14625 22-94): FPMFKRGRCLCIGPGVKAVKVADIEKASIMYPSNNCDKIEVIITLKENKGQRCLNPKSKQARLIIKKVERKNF
Description: as §1

[6] = biological target: T3, PlGF-2 (Homo sapiens, UniProt P49763); experiment: Surface plasmon resonance, laminin against GF; parameters: All GFs and chemokines were purchased in their mature forms; purchased PeproTech; host or cells: Escherichia coli; settings: SPR; laminin protein immobilized on chip, GF flowed; Langmuir binding kinetics
T3 sequence (P49763 19-170 isoform P49763-3 limits assumed): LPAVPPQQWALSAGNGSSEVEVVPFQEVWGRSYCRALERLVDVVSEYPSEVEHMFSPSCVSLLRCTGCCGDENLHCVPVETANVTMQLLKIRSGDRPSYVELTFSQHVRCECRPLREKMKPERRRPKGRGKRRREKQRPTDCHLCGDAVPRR
Description: (§2) SPR analysis was performed as described previously^2. In brief, measurements were made with a Biacore 3000 SPR system (GE Healthcare). Laminin-521 or laminin α32928-3150 was immobilized via amine coupling on a C1 chip (GE Healthcare) for ˜2000 or ˜1000 resonance units (RU), respectively, according to the manufacturer's instructions. VEGF-A165, PDGF-BB, or PlGF-2 was flowed at increasing concentrations in the running buffer at 20 μL/min. The sensor chip was regenerated with 50 mM NaOH for every cycle. Specific bindings of GFs to laminin were calculated by comparison to a non-functionalized channel used as a reference. Experimental results were fitted with Langmuir binding kinetics using BIAevaluation software (GE Healthcare).

[7] = biological target: T4, PDGF-BB (Homo sapiens, UniProt P01127); experiment: Surface plasmon resonance, laminin against GF; settings: SPR; laminin protein immobilized on chip, GF flowed; Langmuir binding kinetics
T4 construct: All growth factors (GFs) and chemokines were purchased in their mature forms; purchased PeproTech; host or cells: Escherichia coli
Description: as §2

[8] = biological target: T5, VEGF-A165 (Homo sapiens, UniProt P15692); experiment: Surface plasmon resonance, laminin against GF; settings: SPR; laminin protein immobilized on chip, GF flowed; Langmuir binding kinetics
T5 construct: All growth factors (GFs) and chemokines were purchased in their mature forms; purchased PeproTech; host or cells: Escherichia coli
T5 sequence (P15692 27-191 isoform P15692-4 limits assumed): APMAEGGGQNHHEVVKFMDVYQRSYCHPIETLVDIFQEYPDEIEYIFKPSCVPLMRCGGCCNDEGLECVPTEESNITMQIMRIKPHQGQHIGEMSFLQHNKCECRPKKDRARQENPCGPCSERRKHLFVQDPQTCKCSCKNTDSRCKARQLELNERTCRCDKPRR
Description: as §2

[9] = biological target: T6, VEGF-A145 (Homo sapiens, UniProt P15692); experiment: vWF binding to recombinant VEGF-A isoforms (ELISA); settings: plate coated with 50 nM vWF domains, 1 μg/mL VEGF-A, vs BSA
T6 construct: All GFs and chemokines were purchased in their mature forms; purchased R & D Systems
T6 sequence (P15692 27-171 isoform P15692-6 limits assumed): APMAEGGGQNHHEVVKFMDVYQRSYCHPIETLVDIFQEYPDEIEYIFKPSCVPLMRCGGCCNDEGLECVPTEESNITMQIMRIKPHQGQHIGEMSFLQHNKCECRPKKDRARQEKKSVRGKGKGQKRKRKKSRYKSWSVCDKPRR
Description: (§3) ELISA was performed as previously reported1. In brief, ELISA plates (med binding: Greiner Bio-One) were coated with 50 nM BSA (GE Healthcare), pro-peptide containing recombinant vWF (Sino Biological), plasma-derived vWF (EMD Millipore), recombinant human vWF A1 domain (U-Protein Express), recombinant human vWF A2 domain (R & D systems), recombinant human vWF A3 domain (U-Protein Express), vWF A1 HBD peptide or scrambled/mutated HBD peptide (all peptides were synthesized by Genscript). After blocking with 2% BSA solution containing PBS-T, 1 μg/mL of recombinant human VEGF-A121 (PeproTech), recombinant human VEGF-A145 (R & D Systems), or recombinant human VEGF-A165 (PeproTech) was added. Bound VEGF-A was detected with 1 μg/mL of mouse anti-human VEGF-A antibody (clone: 26503, R & D systems). After 60 min of incubation, horseradish peroxidase (HRP) conjugated goat anti-mouse antibody (1:2000 dilution, Dako) was added and incubated for another 60 min. Color development and the absorbance measurement were done as described above.

[10] = biological target: T5, VEGF-A165; experiment: vWF binding to recombinant VEGF-A isoforms (ELISA); settings: plate coated with 50 nM vWF domains, 1 μg/mL VEGF-A, vs BSA
Description: as §3

[11] = biological target: T3, PlGF-2; experiment: Recombinant GF binding to the vWF recombinant protein and A1 HBD peptide (ELISA); parameters: All growth factors (GFs) and chemokines were purchased in their mature forms; purchased PeproTech; host or cells: Escherichia coli; settings: plate coated with vWF protein, A1 domain or HBD peptide, 1 μg/mL GF
Description: (§4) ELISA tests were performed as described above. In brief, ELISA plates were coated with 1 μg/mL of FL-vWF (WT or R1341Q), 1 μg/mL of vWF A1 recombinant protein (U-Protein Express) or 1 μg/mL of vWF A1 HBD peptide (sequence […], (SEQ ID NO:50) chemically synthesized by Genscript) at 37° C. overnight. After blocking with 2% BSA solution containing PBS-T, 1 μg/mL of the recombinant human proteins VEGF-A121, VEGF-A165, PlGF-1, PlGF-2, PDGF-BB, FGF-2, CXCL-12α and CXCL-12γ were added. 1 μg/mL of BSA served as non-binding protein control. Bound GF or chemokine was detected with biotinylated antibodies for human VEGF-A, PlGF, PDGF-BB, FGF-2, or CXCL-12 (R & D Systems). The antibodies were detected by streptavidin-HRP (R & D Systems). Color development and the absorbance measurement were done as described above.

[12] = biological target: FGF-2 (Homo sapiens, UniProt P09038); experiment: as above; parameters: All growth factors (GFs) and chemokines were purchased in their mature forms; purchased PeproTech; host or cells: Escherichia coli; settings: plate coated with vWF protein, A1 domain or HBD peptide, 1 μg/mL GF
Description: as §4

[13] = biological target: T7, CXCL-12γ (Homo sapiens, UniProt P48061); experiment: as above; settings: plate coated with vWF protein, A1 domain or HBD peptide, 1 μg/mL GF
T7 construct: All GFs and chemokines were purchased in their mature forms; purchased R & D Systems; host or cells: Escherichia coli
Description: as §4

[14] = biological target: T4, PDGF-BB; experiment: as above; settings: plate coated with vWF protein, A1 domain or HBD peptide, 1 μg/mL GF
Description: as §4

[15] = biological target: T5, VEGF-A165; experiment: as above; settings: plate coated with vWF protein, A1 domain or HBD peptide, 1 μg/mL GF
Description: as §4

T4 sequence (P01127 82-190 limits assumed): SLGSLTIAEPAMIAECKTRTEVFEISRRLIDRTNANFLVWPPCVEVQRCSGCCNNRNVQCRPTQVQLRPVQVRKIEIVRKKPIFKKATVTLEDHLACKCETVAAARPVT
FGF-2, sequence (P09038 143-288): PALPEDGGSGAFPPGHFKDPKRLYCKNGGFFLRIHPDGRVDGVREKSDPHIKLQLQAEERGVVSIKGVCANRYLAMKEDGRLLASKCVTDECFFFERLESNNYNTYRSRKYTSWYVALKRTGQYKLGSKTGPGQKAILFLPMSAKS
T7 sequence (P48061 22-119 isoform P48061-3): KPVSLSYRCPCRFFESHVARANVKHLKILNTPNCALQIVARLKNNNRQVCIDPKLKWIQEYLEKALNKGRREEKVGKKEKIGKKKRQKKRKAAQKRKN
T1 sequence (P48061 22-89 limits assumed): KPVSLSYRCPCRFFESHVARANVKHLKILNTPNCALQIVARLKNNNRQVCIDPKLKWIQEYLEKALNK
vWF binding to the GFs, sequence (P04275 764-2813 limits assumed): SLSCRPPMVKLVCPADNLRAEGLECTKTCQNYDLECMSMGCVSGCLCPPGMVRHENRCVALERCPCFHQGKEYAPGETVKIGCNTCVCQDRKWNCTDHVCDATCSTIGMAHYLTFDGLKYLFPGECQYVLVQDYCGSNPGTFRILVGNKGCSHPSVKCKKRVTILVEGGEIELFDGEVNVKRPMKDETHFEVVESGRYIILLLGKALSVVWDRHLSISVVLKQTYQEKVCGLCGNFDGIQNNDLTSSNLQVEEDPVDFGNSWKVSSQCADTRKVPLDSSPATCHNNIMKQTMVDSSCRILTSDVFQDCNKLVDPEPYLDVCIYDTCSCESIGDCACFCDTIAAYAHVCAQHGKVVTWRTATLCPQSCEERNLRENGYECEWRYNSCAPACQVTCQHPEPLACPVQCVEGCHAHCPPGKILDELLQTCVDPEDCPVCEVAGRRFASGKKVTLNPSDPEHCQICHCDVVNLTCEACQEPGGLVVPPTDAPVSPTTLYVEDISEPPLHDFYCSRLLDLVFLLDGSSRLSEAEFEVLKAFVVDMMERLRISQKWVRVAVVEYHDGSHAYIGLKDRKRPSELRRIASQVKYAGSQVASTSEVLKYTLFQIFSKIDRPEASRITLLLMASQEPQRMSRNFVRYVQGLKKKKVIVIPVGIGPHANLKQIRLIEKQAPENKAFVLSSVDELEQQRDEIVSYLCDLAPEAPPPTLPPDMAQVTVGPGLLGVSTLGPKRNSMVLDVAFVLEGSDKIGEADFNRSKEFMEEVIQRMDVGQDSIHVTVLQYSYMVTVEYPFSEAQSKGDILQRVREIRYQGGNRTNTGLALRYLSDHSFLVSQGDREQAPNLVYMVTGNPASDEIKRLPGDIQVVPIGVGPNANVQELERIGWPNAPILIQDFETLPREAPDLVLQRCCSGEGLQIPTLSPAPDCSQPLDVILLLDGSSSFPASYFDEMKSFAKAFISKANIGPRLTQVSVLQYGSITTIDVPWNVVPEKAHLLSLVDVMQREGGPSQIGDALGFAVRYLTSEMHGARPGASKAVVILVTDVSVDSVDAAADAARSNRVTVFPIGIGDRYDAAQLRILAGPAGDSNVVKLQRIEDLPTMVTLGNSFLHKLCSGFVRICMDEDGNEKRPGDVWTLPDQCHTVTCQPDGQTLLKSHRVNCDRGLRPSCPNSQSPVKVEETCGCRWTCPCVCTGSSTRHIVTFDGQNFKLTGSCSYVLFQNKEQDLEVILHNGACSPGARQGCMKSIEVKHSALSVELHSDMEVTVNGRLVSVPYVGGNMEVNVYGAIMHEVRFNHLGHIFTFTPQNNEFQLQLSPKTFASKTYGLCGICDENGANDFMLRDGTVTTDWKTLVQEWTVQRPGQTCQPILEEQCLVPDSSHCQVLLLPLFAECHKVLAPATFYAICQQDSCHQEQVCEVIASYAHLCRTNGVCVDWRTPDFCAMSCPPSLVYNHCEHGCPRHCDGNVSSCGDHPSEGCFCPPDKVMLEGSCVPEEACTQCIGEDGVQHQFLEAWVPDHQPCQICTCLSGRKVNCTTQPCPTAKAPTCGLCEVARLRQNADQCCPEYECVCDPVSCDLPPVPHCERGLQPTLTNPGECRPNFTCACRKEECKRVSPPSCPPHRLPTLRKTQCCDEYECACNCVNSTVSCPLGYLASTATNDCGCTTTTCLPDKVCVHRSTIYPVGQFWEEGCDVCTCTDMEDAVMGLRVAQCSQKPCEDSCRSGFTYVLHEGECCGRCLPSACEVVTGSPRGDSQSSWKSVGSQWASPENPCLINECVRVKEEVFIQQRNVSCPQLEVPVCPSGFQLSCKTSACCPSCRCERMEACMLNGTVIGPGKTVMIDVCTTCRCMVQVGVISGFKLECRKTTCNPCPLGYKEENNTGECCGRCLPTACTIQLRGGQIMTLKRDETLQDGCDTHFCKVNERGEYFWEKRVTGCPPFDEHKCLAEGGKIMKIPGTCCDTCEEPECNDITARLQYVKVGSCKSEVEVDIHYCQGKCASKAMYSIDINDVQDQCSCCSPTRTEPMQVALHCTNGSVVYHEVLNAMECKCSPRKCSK

Q: How did the “amount of VEGF-A165 remaining in the wounds” value [1] turn out when “NQEQVSPLRLVFALGTDGKKLRIKSKEKCNDGK [α2PI1-8-α33043-3067]” was run?
A: significantly enhanced

Q: Which “inhibition of GF binding to laminin” value [2] does the source give for heparin here?
A: inhibited GF binding to laminin

Q: And the “inhibition of vWF binding to the GFs” value [3]?
A: inhibited vWF binding to the GFs

Q: With “laminin-332: recombinant human full-length laminin isoform -332 (BioLamina)” as the substance, how does the “binding of laminin to CXCL-12a” value [4] read?
A: bound weakly

Q: What about the “binding of laminin to CXCL-11” value [5] of the same substance?
A: bound weakly

Q: What does the source list for “laminin-521: recombinant human full-length laminin isoform -521 (BioLamina)”?
A: Kd [6]: 12.9 nM; Kd [7]: 24.2 nM; Kd [8]: 5.8 nM

Q: With “recombinant A1 domain: recombinant human vWF A1 domain (U-Protein Express)” as the substance, how does the “binding to VEGF-A145” value [9] read?
A: bound

Q: And the “binding to VEGF-A165” value [10]?
A: bound

Q: What about the “binding to PlGF-2” value [11] of the same substance?
A: strong binding

Q: What about the “binding to FGF-2” value [12] of the same substance?
A: strong binding

Q: What about the “binding to CXCL-12γ” value [13] of the same substance?
A: strong binding

Q: What about the “binding to PDGF-BB” value [14] of the same substance?
A: strong binding

Q: And the “binding to VEGF-A165” value [15]?
A: strong binding
